Test results reported in paper PMC4333417 (Nucleic Acids Research, 2015).

Experiments:
Sco5333 = molecular target: T1, Sco5333 (Streptomyces coelicolor, UniProt Q9ADD4 1-301); assay: EMSA
T1 sequence: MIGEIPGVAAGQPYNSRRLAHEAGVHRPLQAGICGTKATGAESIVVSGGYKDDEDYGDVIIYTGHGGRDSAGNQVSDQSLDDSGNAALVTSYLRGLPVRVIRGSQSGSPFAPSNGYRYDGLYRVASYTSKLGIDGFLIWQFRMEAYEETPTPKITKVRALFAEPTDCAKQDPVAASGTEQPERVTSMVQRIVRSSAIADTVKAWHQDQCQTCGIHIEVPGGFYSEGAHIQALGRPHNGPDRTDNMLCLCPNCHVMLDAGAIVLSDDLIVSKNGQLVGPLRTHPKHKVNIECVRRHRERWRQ

Tbis1 = molecular target: T2, Tbis1 (Thermobispora bispora DSM 43833, UniProt D6YAC6 2-309); assay: EMSA
T2 sequence: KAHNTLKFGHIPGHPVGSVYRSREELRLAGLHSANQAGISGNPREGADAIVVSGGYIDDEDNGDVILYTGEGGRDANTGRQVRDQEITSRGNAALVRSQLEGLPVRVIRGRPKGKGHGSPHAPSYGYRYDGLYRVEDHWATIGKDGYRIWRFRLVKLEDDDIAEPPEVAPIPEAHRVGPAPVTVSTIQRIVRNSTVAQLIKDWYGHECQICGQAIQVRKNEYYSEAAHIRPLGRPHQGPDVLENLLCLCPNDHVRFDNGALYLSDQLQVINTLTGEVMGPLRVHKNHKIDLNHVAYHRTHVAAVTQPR

SEC = molecular target: the molecule itself; assay: SEC

B1: 55ntDcm2 fully methylated (55nt-5/7) (dsDNA)
DNA 1: ACTATAAAGATACCAGGCGTTTCCCCCTGGAAGCTCCCTCGTGCGCTCTCCTGTT
DNA 2: AACAGGAGAGCGCACGAGGGAGCTTCCAGGGGGAAACGCCTGGTATCTTTATAGT
modifications: 5mC at strand 1 pos 27 and strand 2 pos 27
B1: binds (Sco5333).

B2: 55ntDcm2 top methylated (55nt-5/8) (dsDNA)
DNA 1: ACTATAAAGATACCAGGCGTTTCCCCCTGGAAGCTCCCTCGTGCGCTCTCCTGTT
DNA 2: AACAGGAGAGCGCACGAGGGAGCTTCCAGGGGGAAACGCCTGGTATCTTTATAGT
modifications: 5mC at strand 1 pos 27
B2: binds (Sco5333).

B3: 55ntDcm2 non-methylated (55nt-6/8) (dsDNA)
DNA 1: ACTATAAAGATACCAGGCGTTTCCCCCTGGAAGCTCCCTCGTGCGCTCTCCTGTT
DNA 2: AACAGGAGAGCGCACGAGGGAGCTTCCAGGGGGAAACGCCTGGTATCTTTATAGT
B3: no binding (Sco5333).

B4: 55ntDcm2 bottom methylated (55nt-6/7) (dsDNA)
DNA 1: ACTATAAAGATACCAGGCGTTTCCCCCTGGAAGCTCCCTCGTGCGCTCTCCTGTT
DNA 2: AACAGGAGAGCGCACGAGGGAGCTTCCAGGGGGAAACGCCTGGTATCTTTATAGT
modifications: 5mC at strand 2 pos 27
B4: binds (Sco5333).

B5: 56nt top methylated (56nt-1/4) (dsDNA)
DNA 1: CGGCGTTTCCGGGTTCCATAGGCTCCGCTCCGGCCTCTGATGACCAGGGCATCACA
DNA 2: TGTGATGCCCTGGTCATCAGAGGCCGGAGCGGAGCCTATGGAACCCGGAAACGCCG
modifications: 5mC at strand 1 pos 31
B5: binds (Tbis1).

B6: 56nt bottom methylated (56nt-2/3) (dsDNA)
DNA 1: CGGCGTTTCCGGGTTCCATAGGCTCCGCTCCGGCCTCTGATGACCAGGGCATCACA
DNA 2: TGTGATGCCCTGGTCATCAGAGGCCGGAGCGGAGCCTATGGAACCCGGAAACGCCG
modifications: 5mC at strand 2 pos 25 (Table S3; methods print 24)
B6: binds (Tbis1).

B7: 56nt non-methylated (56nt-2/4) (dsDNA)
DNA 1: CGGCGTTTCCGGGTTCCATAGGCTCCGCTCCGGCCTCTGATGACCAGGGCATCACA
DNA 2: TGTGATGCCCTGGTCATCAGAGGCCGGAGCGGAGCCTATGGAACCCGGAAACGCCG
B7: no binding (Tbis1).

B8: 55ntDcm1 non-methylated (55nt-2/4) (dsDNA)
DNA 1: GAAACCCGACAGGACTATAAAGATACCAGGCGTTTCCCCCTGGAAGCTCCCTCGT
DNA 2: ACGAGGGAGCTTCCAGGGGGAAACGCCTGGTATCTTTATAGTCCTGTCGGGTTTC
B8: no binding (Sco5333).

B9: 55ntDcm1 AmCAGG top (55nt-13/16) (dsDNA)
DNA 1: GAAACCCGACAGGACTATAAAGATAACAGGCGTTTCCCCCTGGAAGCTCCCTCGT
DNA 2: ACGAGGGAGCTTCCAGGGGGAAACGCCTGTTATCTTTATAGTCCTGTCGGGTTTC
modifications: 5mC at strand 1 pos 27
B9: binds (Sco5333).

B10: 55ntDcm1 CmCGGG bottom (55nt-30/31) (dsDNA)
DNA 1: GAAACCCGACAGGACTATAAAGATACCGGGCGTTTCCCCCTGGAAGCTCCCTCGT
DNA 2: ACGAGGGAGCTTCCAGGGGGAAACGCCCGGTATCTTTATAGTCCTGTCGGGTTTC
modifications: 5mC at strand 2 pos 27
B10: binds (Sco5333).

B11: 55ntDcm1 fully methylated (55nt-1/3) (dsDNA)
DNA 1: GAAACCCGACAGGACTATAAAGATACCAGGCGTTTCCCCCTGGAAGCTCCCTCGT
DNA 2: ACGAGGGAGCTTCCAGGGGGAAACGCCTGGTATCTTTATAGTCCTGTCGGGTTTC
modifications: 5mC at strand 1 pos 27 and strand 2 pos 27
B11: binds (Sco5333).

B12: 55ntDcm1 TmCAGG bottom (55nt-18/19) (dsDNA)
DNA 1: GAAACCCGACAGGACTATAAAGATATCAGGCGTTTCCCCCTGGAAGCTCCCTCGT
DNA 2: ACGAGGGAGCTTCCAGGGGGAAACGCCTGATATCTTTATAGTCCTGTCGGGTTTC
modifications: 5mC at strand 2 pos 27
B12: binds (Sco5333).

B13: 55ntDcm1 GmCAGG top (55nt-9/12) (dsDNA)
DNA 1: GAAACCCGACAGGACTATAAAGATAGCAGGCGTTTCCCCCTGGAAGCTCCCTCGT
DNA 2: ACGAGGGAGCTTCCAGGGGGAAACGCCTGCTATCTTTATAGTCCTGTCGGGTTTC
modifications: 5mC at strand 1 pos 27
B13: binds (Sco5333).

B14: 55ntDcm1 AmCAGG bottom (55nt-14/15) (dsDNA)
DNA 1: GAAACCCGACAGGACTATAAAGATAACAGGCGTTTCCCCCTGGAAGCTCCCTCGT
DNA 2: ACGAGGGAGCTTCCAGGGGGAAACGCCTGTTATCTTTATAGTCCTGTCGGGTTTC
modifications: 5mC at strand 2 pos 27
B14: binds (Sco5333).

B15: 55ntDcm1 CmCTGG bottom (55nt-22/23) (dsDNA)
DNA 1: GAAACCCGACAGGACTATAAAGATACCTGGCGTTTCCCCCTGGAAGCTCCCTCGT
DNA 2: ACGAGGGAGCTTCCAGGGGGAAACGCCAGGTATCTTTATAGTCCTGTCGGGTTTC
modifications: 5mC at strand 2 pos 27
B15: binds (Sco5333).

B16: 55ntDcm1 CmCCGG bottom (55nt-26/27) (dsDNA)
DNA 1: GAAACCCGACAGGACTATAAAGATACCCGGCGTTTCCCCCTGGAAGCTCCCTCGT
DNA 2: ACGAGGGAGCTTCCAGGGGGAAACGCCGGGTATCTTTATAGTCCTGTCGGGTTTC
modifications: 5mC at strand 2 pos 27
B16: binds (Sco5333).

B17: 55ntDcm1 TmCAGG top (55nt-17/20) (dsDNA)
DNA 1: GAAACCCGACAGGACTATAAAGATATCAGGCGTTTCCCCCTGGAAGCTCCCTCGT
DNA 2: ACGAGGGAGCTTCCAGGGGGAAACGCCTGATATCTTTATAGTCCTGTCGGGTTTC
modifications: 5mC at strand 1 pos 27
B17: binds (Sco5333).

B18: 55ntDcm1 GmCAGG full (55nt-9/11) (dsDNA)
DNA 1: GAAACCCGACAGGACTATAAAGATAGCAGGCGTTTCCCCCTGGAAGCTCCCTCGT
DNA 2: ACGAGGGAGCTTCCAGGGGGAAACGCCTGCTATCTTTATAGTCCTGTCGGGTTTC
modifications: 5mC at strand 1 pos 27 and strand 2 pos 27
B18: binds (Sco5333).

B19: 55ntDcm1 CmCTGG full (55nt-21/23) (dsDNA)
DNA 1: GAAACCCGACAGGACTATAAAGATACCTGGCGTTTCCCCCTGGAAGCTCCCTCGT
DNA 2: ACGAGGGAGCTTCCAGGGGGAAACGCCAGGTATCTTTATAGTCCTGTCGGGTTTC
modifications: 5mC at strand 1 pos 27 and strand 2 pos 27
B19: binds (Sco5333).

B20: 55ntDcm1 CmCCGG top (55nt-25/28) (dsDNA)
DNA 1: GAAACCCGACAGGACTATAAAGATACCCGGCGTTTCCCCCTGGAAGCTCCCTCGT
DNA 2: ACGAGGGAGCTTCCAGGGGGAAACGCCGGGTATCTTTATAGTCCTGTCGGGTTTC
modifications: 5mC at strand 1 pos 27
B20: binds (Sco5333).

B21: 55ntDcm1 CmCGGG full (55nt-29/31) (dsDNA)
DNA 1: GAAACCCGACAGGACTATAAAGATACCGGGCGTTTCCCCCTGGAAGCTCCCTCGT
DNA 2: ACGAGGGAGCTTCCAGGGGGAAACGCCCGGTATCTTTATAGTCCTGTCGGGTTTC
modifications: 5mC at strand 1 pos 27 and strand 2 pos 27
B21: binds (Sco5333).

B22: 55ntDcm1 CmCTGG top (55nt-21/24) (dsDNA)
DNA 1: GAAACCCGACAGGACTATAAAGATACCTGGCGTTTCCCCCTGGAAGCTCCCTCGT
DNA 2: ACGAGGGAGCTTCCAGGGGGAAACGCCAGGTATCTTTATAGTCCTGTCGGGTTTC
modifications: 5mC at strand 1 pos 27
B22: binds (Sco5333).

B23: 55ntDcm1 top methylated (55nt-1/4) (dsDNA)
DNA 1: GAAACCCGACAGGACTATAAAGATACCAGGCGTTTCCCCCTGGAAGCTCCCTCGT
DNA 2: ACGAGGGAGCTTCCAGGGGGAAACGCCTGGTATCTTTATAGTCCTGTCGGGTTTC
modifications: 5mC at strand 1 pos 27
B23: binds (Sco5333).

B24: 55ntDcm1 AmCAGG full (55nt-13/15) (dsDNA)
DNA 1: GAAACCCGACAGGACTATAAAGATAACAGGCGTTTCCCCCTGGAAGCTCCCTCGT
DNA 2: ACGAGGGAGCTTCCAGGGGGAAACGCCTGTTATCTTTATAGTCCTGTCGGGTTTC
modifications: 5mC at strand 1 pos 27 and strand 2 pos 27
B24: binds (Sco5333).

B25: 55ntDcm1 TmCAGG full (55nt-17/19) (dsDNA)
DNA 1: GAAACCCGACAGGACTATAAAGATATCAGGCGTTTCCCCCTGGAAGCTCCCTCGT
DNA 2: ACGAGGGAGCTTCCAGGGGGAAACGCCTGATATCTTTATAGTCCTGTCGGGTTTC
modifications: 5mC at strand 1 pos 27 and strand 2 pos 27
B25: binds (Sco5333).

B26: 55ntDcm1 CmCCGG full (55nt-25/27) (dsDNA)
DNA 1: GAAACCCGACAGGACTATAAAGATACCCGGCGTTTCCCCCTGGAAGCTCCCTCGT
DNA 2: ACGAGGGAGCTTCCAGGGGGAAACGCCGGGTATCTTTATAGTCCTGTCGGGTTTC
modifications: 5mC at strand 1 pos 27 and strand 2 pos 27
B26: binds (Sco5333).

B27: 55ntDcm1 CmCGGG top (55nt-29/32) (dsDNA)
DNA 1: GAAACCCGACAGGACTATAAAGATACCGGGCGTTTCCCCCTGGAAGCTCCCTCGT
DNA 2: ACGAGGGAGCTTCCAGGGGGAAACGCCCGGTATCTTTATAGTCCTGTCGGGTTTC
modifications: 5mC at strand 1 pos 27
B27: binds (Sco5333).

B28: 55ntDcm1 GmCAGG bottom (55nt-10/11) (dsDNA)
DNA 1: GAAACCCGACAGGACTATAAAGATAGCAGGCGTTTCCCCCTGGAAGCTCCCTCGT
DNA 2: ACGAGGGAGCTTCCAGGGGGAAACGCCTGCTATCTTTATAGTCCTGTCGGGTTTC
modifications: 5mC at strand 2 pos 27
B28: binds (Sco5333).

B29: 55ntDcm1 bottom methylated (55nt-2/3) (dsDNA)
DNA 1: GAAACCCGACAGGACTATAAAGATACCAGGCGTTTCCCCCTGGAAGCTCCCTCGT
DNA 2: ACGAGGGAGCTTCCAGGGGGAAACGCCTGGTATCTTTATAGTCCTGTCGGGTTTC
modifications: 5mC at strand 2 pos 27
B29: binds (Sco5333).

B30: Sco5333 (enzyme, Streptomyces coelicolor, UniProt Q9ADD4 1-301, looked up)
chain: MIGEIPGVAAGQPYNSRRLAHEAGVHRPLQAGICGTKATGAESIVVSGGYKDDEDYGDVIIYTGHGGRDSAGNQVSDQSLDDSGNAALVTSYLRGLPVRVIRGSQSGSPFAPSNGYRYDGLYRVASYTSKLGIDGFLIWQFRMEAYEETPTPKITKVRALFAEPTDCAKQDPVAASGTEQPERVTSMVQRIVRSSAIADTVKAWHQDQCQTCGIHIEVPGGFYSEGAHIQALGRPHNGPDRTDNMLCLCPNCHVMLDAGAIVLSDDLIVSKNGQLVGPLRTHPKHKVNIECVRRHRERWRQ
B30 was tested, and the “stoichiometry N” value (SEC) was 2.
